From article doi:10.1101/2020.06.24.168591

Target: E108D mutant of Thermoplasmatales archaeon SG8-52-1 heliorhodopsin (TaHeR) (Thermoplasmatales archaeon SG8-52-1)
Assay: crystal structure

- stoichiometry N: 2
Substance: E108D mutant of Thermoplasmatales archaeon SG8-52-1 heliorhodopsin (TaHeR) (natural protein)
